This note sets out measurements from US20250313611A1.

Assay [1] concerns the target recombinant human FcRn/FCGRT-B2M heterodimer protein (human) (UniProt P55899). The experiment in a line: SPR, steady state affinity, pH 6.0.
For assay [2] the target is unchanged. The experiment in a line: SPR Biacore 8K+, antibody on CM5 chip, FcRn in solution, pH 6.0. Background: In SPR one partner is held on a chip, and binding of the other changes the refractive index at the surface.
Assay [3] concerns the target SARS-COV-2 RBD (His-tagged, Sinobiologicals) (SARS-CoV-2 (Wuhan)) (UniProt P0DTC2). The experiment in a line: ELISA, coated antigen, dilution series, OD450 [3/3]. In general terms: ELISA stands for enzyme-linked immunosorbent assay.
Assay [4] deals with recombinant prefusion-stabilized SARS-COV-2 spike protein S-6P (SARS-CoV-2 (Wuhan)) (UniProt P0DTC2). The assay is described as above.
The target in assay [5] is recombinant stabilized SARS-COV-1 Spike protein ([change], with foldon) (SARS-CoV-1) (UniProt P59594). The description is as above.

Sequence of recombinant human FcRn/FCGRT-B2M heterodimer protein (human) (P55899 24-297 limits assumed, chain 1 of 2): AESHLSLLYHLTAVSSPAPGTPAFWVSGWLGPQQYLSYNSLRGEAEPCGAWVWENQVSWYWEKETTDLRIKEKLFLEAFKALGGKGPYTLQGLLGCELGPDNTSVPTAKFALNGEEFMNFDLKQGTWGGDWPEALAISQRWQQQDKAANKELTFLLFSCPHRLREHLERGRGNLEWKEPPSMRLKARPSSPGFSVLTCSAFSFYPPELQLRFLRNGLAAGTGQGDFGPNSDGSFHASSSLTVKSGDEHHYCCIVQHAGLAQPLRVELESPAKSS
Sequence of recombinant human FcRn/FCGRT-B2M heterodimer protein (human) (P61769 21-119 limits assumed, chain 2 of 2, further chain): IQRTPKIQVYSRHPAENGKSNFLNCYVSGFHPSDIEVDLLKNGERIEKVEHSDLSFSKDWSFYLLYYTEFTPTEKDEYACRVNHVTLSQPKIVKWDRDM

In general, Kd refers to the constant that tells how readily two partners part at equilibrium. On to “Bebtelovimab Biosimilar (PX-TA1750) (antibody)”, for which the Kd in assay [1] was found to be 19.4 nM. Also, the RUmax (steady state affinity, pH 6.0) in assay [2] was 57.1 RU.

Usually EC50 (read off the curve) stands for the concentration that produces a half-maximal response. Consider S309 monoclonal antibody, for which the EC50 (read off the curve) in assay [3] amounted to 0.1 µg/mL; in assay [4], 0.09 µg/mL; in assay [5] it was 0.04 µg/mL.

For human IgG1 isotype control antibody, the Kd in assay [1] amounted to 15 nM. Moreover, in assay [2], the RUmax (steady state affinity, pH 6.0) is 37.5 RU.
